The target of series [1] is serum albumin (UniProt P02768 25-609). The series is described as follows: electrochemical impedance spectroscopy; albumin 5,000 mg/dL; Rct did not increase (slight decrease); PBS (187 mM NaCl, 2.7 mM KCl, 8.1 mM Na2HPO4, 1.76 mM KH2PO4, pH 7.0), room temperature; aptamer 1 uM adsorbed on graphite-epoxy electrode, PEG blocking. The note with it: G-quadruplex (quadriplex).

Series [2] concerns the target thrombin (UniProt P00734;P00734 328-363;364-622). The series is described as follows: electrochemical impedance spectroscopy; linear response 7.5-75 pM, detection limit 4.5 pM; PEG-blocked electrode, [Fe(CN)6]3-/4- probe; complex broken by 2.0 M NaCl at 42 C; PBS (187 mM NaCl, 2.7 mM KCl, 8.1 mM Na2HPO4, 1.76 mM KH2PO4, pH 7.0), room temperature; aptamer 1 uM adsorbed on graphite-epoxy electrode, PEG blocking.

Sequence of serum albumin (P02768 25-609): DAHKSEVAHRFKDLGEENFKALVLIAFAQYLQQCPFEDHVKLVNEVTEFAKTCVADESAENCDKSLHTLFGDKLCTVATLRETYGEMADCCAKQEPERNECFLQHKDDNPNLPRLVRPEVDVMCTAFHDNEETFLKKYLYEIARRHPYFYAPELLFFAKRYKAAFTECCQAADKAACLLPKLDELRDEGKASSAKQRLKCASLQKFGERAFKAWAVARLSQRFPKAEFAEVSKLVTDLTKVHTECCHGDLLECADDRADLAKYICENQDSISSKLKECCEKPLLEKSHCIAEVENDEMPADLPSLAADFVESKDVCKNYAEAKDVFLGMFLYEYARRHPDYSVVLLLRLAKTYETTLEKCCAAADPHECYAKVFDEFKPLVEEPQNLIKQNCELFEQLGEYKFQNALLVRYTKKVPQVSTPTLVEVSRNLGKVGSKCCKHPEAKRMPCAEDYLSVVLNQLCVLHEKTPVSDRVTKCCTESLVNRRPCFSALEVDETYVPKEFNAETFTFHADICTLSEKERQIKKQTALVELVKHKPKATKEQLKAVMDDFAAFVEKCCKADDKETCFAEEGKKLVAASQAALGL

Take GGTTGGTGTGGTTGG (structured_DNA) [AptThr]: the binding result is recorded as “no binding” in series [1] and “binds” in series [2].

These data come from article PMC3376577, “A Reusable Impedimetric Aptasensor for Detection of Thrombin Employing a Graphite-Epoxy Composite Electrode”.
